According to the supplement of paper PMC10567573:

B1: TRIM43 (parent)
chain: FCDMDKSLLCLLCSNSQEHGAHKH
B2: KLHL20 (parent)
chain: YQDMIYAVGGRDDTTELSSAERYN

Variants of: B1
Test: protein stability index of a GFP-peptide fusion (GPS, HEK-293T) (PSI 1-6); higher = more stable
Settings: c terminus: a fixed tail appended
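Also: lentivirally expressed fusions sorted by FACS into six bins by GFP to DsRed ratio, PSI derived from sequencing read proportions per bin multiplied by bin number.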

Q: Which protein stability index does the source give for Q17S here?
A: 1.55

Q: With Q17L as the variant, how does the protein stability index read?
A: 1.63

Q: For Q17P, which protein stability index is on record?
A: 1.7

Q: Which protein stability index does the source give for Q17R here?
A: 1.6

Q: Which protein stability index does the source give for Q17F here?
A: 2.05

Q: For Q17M, which protein stability index is on record?
A: 1.58

Q: With Q17K as the variant, how does the protein stability index read?
A: 2.13

Q: Which protein stability index does the source give for Q17I here?
A: 1.78

Q: With Q17H as the variant, how does the protein stability index read?
A: 1.76

Q: Which protein stability index does the source give for Q17N here?
A: 1.51

Q: Which protein stability index does the source give for Q17E here?
A: 2.1

Q: With Q17T as the variant, how does the protein stability index read?
A: 1.61

Q: With S16V as the variant, how does the protein stability index read?
A: 2.23

Q: With S16W as the variant, how does the protein stability index read?
A: 1.75

Q: Which protein stability index does the source give for S16Y here?
A: 1.79

Q: Which protein stability index does the source give for H22L here?
A: 1.61

Q: Which protein stability index does the source give for H22G here?
A: 1.78

Q: For H22Q, which protein stability index is on record?
A: 1.91

Q: With H22M as the variant, how does the protein stability index read?
A: 1.48

Q: With H22S as the variant, how does the protein stability index read?
A: 1.73

Q: With H22D as the variant, how does the protein stability index read?
A: 2.11

Q: With H22F as the variant, how does the protein stability index read?
A: 2.17

Q: For H22P, which protein stability index is on record?
A: 1.69

Q: With H22K as the variant, how does the protein stability index read?
A: 1.73

Q: Which protein stability index does the source give for H22E here?
A: 1.53

Q: With H22R as the variant, how does the protein stability index read?
A: 1.84

Q: Which protein stability index does the source give for H22I here?
A: 2.17

Q: Which protein stability index does the source give for H22N here?
A: 1.75

Q: For H22W, which protein stability index is on record?
A: 1.45

Q: Which protein stability index does the source give for H22T here?
A: 1.79

Q: For H22V, which protein stability index is on record?
A: 1.7

Q: Which protein stability index does the source give for H22C here?
A: 2.59

Q: For H22A, which protein stability index is on record?
A: 1.77

Q: For H22Y, which protein stability index is on record?
A: 1.87

Q: With H24V as the variant, how does the protein stability index read?
A: 2.04

Q: For H24Y, which protein stability index is on record?
A: 1.36

Q: With H24M as the variant, how does the protein stability index read?
A: 1.48

Q: For H24G, which protein stability index is on record?
A: 1.77

Q: For H24I, which protein stability index is on record?
A: 1.7

Q: Which protein stability index does the source give for H24A here?
A: 1.72

Q: Which protein stability index does the source give for H24R here?
A: 1.86

Q: Which protein stability index does the source give for H24E here?
A: 1.65

Q: With H24N as the variant, how does the protein stability index read?
A: 2.26

Q: For H24P, which protein stability index is on record?
A: 1.69

Q: Which protein stability index does the source give for H24D here?
A: 2.18

Q: For H24S, which protein stability index is on record?
A: 1.58

Q: For H24L, which protein stability index is on record?
A: 1.53

Q: For H24Q, which protein stability index is on record?
A: 2.22

Q: With H24W as the variant, how does the protein stability index read?
A: 1.84

Q: With H24T as the variant, how does the protein stability index read?
A: 1.66

Q: Which protein stability index does the source give for H24K here?
A: 1.89

Q: With H24F as the variant, how does the protein stability index read?
A: 1.43

Q: Which protein stability index does the source give for H24C here?
A: 2.4

Q: Which protein stability index does the source give for H19M here?
A: 2.03

Q: Which protein stability index does the source give for H19F here?
A: 1.67

Q: With H19K as the variant, how does the protein stability index read?
A: 2.11

Q: For H19I, which protein stability index is on record?
A: 1.87

Q: For H19V, which protein stability index is on record?
A: 1.59

Q: For H19S, which protein stability index is on record?
A: 2.01

Q: Which protein stability index does the source give for H19Y here?
A: 1.91

Q: For H19P, which protein stability index is on record?
A: 2.05

Q: With H19A as the variant, how does the protein stability index read?
A: 1.91

Q: Which protein stability index does the source give for H19R here?
A: 2.03

Q: With H19G as the variant, how does the protein stability index read?
A: 2.18

Q: For H19D, which protein stability index is on record?
A: 2.38

Q: For H19Q, which protein stability index is on record?
A: 1.41

Q: For H19N, which protein stability index is on record?
A: 1.75

Q: With H19W as the variant, how does the protein stability index read?
A: 1.51

Q: For H19T, which protein stability index is on record?
A: 1.83

Q: Which protein stability index does the source give for H19L here?
A: 1.42

Q: With H19C as the variant, how does the protein stability index read?
A: 2.03

Q: For H19E, which protein stability index is on record?
A: 1.98

Variants of: B2
Test: as above
Settings: c terminus: a fixed tail appended

Q: For Y1K, which protein stability index is on record?
A: 4.39

Q: With Y1F as the variant, how does the protein stability index read?
A: 1.89

Q: With Y1N as the variant, how does the protein stability index read?
A: 4.96

Q: With Y1A as the variant, how does the protein stability index read?
A: 4.78

Q: With Y1M as the variant, how does the protein stability index read?
A: 4.1

Q: With Y1D as the variant, how does the protein stability index read?
A: 5.33

Q: With Y1C as the variant, how does the protein stability index read?
A: 4.21

Q: Which protein stability index does the source give for Y1H here?
A: 4.5

Q: Which protein stability index does the source give for Y1G here?
A: 4.66

Q: Which protein stability index does the source give for Y1E here?
A: 5.08

Q: With Y1I as the variant, how does the protein stability index read?
A: 4.05

Q: With Y1L as the variant, how does the protein stability index read?
A: 4.26
